From IntAct's records for PubMed 15319482

B1: Protein BRASSINOSTEROID … 1 (Arabidopsis thaliana (Mouse-ear cress)), O22476 (parent)
chain: MKTFSSFFLSVTTLFFFSFFSLSFQASPSQSLYREIHQLISFKDVLPDKNLLPDWSSNKNPCTFDGVTCRDDKVTSIDLSSKPLNVGFSAVSSSLLSLTGLESLFLSNSHINGSVSGFKCSASLTSLDLSRNSLSGPVTTLTSLGSCSGLKFLNVSSNTLDFPGKVSGGLKLNSLEVLDLSANSISGANVVGWVLSDGCGELKHLAISGNKISGDVDVSRCVNLEFLDVSSNNFSTGIPFLGDCSALQHLDISGNKLSGDFSRAISTCTELKLLNISSNQFVGPIPPLPLKSLQYLSLAENKFTGEIPDFLSGACDTLTGLDLSGNHFYGAVPPFFGSCSLLESLALSSNNFSGELPMDTLLKMRGLKVLDLSFNEFSGELPESLTNLSASLLTLDLSSNNFSGPILPNLCQNPKNTLQELYLQNNGFTGKIPPTLSNCSELVSLHLSFNYLSGTIPSSLGSLSKLRDLKLWLNMLEGEIPQELMYVKTLETLILDFNDLTGEIPSGLSNCTNLNWISLSNNRLTGEIPKWIGRLENLAILKLSNNSFSGNIPAELGDCRSLIWLDLNTNLFNGTIPAAMFKQSGKIAANFIAGKRYVYIKNDGMKKECHGAGNLLEFQGIRSEQLNRLSTRNPCNITSRVYGGHTSPTFDNNGSMMFLDMSYNMLSGYIPKEIGSMPYLFILNLGHNDISGSIPDEVGDLRGLNILDLSSNKLDGRIPQAMSALTMLTEIDLSNNNLSGPIPEMGQFETFPPAKFLNNPGLCGYPLPRCDPSNADGYAHHQRSHGRRPASLAGSVAMGLLFSFVCIFGLILVGREMRKRRRKKEAELEMYAEGHGNSGDRTANNTNWKLTGVKEALSINLAAFEKPLRKLTFADLLQATNGFHNDSLIGSGGFGDVYKAILKDGSAVAIKKLIHVSGQGDREFMAEMETIGKIKHRNLVPLLGYCKVGDERLLVYEFMKYGSLEDVLHDPKKAGVKLNWSTRRKIAIGSARGLAFLHHNCSPHIIHRDMKSSNVLLDENLEARVSDFGMARLMSAMDTHLSVSTLAGTPGYVPPEYYQSFRCSTKGDVYSYGVVLLELLTGKRPTDSPDFGDNNLVGWVKQHAKLRISDVFDPELMKEDPALEIELLQHLKVAVACLDDRAWRRPTMVQVMAMFKEIQAGSGIDSQSTIRSIEDGGFSTIEMVDMSIKEVPEGKL
partner: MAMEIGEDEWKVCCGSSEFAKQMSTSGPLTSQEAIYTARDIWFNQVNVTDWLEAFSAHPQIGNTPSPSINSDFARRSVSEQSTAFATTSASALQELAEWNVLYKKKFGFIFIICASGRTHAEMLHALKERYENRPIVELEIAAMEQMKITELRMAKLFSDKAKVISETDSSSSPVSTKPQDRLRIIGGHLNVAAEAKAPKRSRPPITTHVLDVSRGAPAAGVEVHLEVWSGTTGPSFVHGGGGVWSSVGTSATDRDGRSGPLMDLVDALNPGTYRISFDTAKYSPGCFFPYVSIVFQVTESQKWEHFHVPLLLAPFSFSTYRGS

What was measured:
tthl_arath TTL, Q9LVM5 [1] = variants of: B1; conditions: with tthl_arath TTL
tthl_arath TTL, Q9LVM5 [2] = variants of: B1; conditions: with tthl_arath TTL; remark: listed apart in the source

Variant | effect of a mutation on the interaction (tthl_arath TTL, Q9LVM5 [1]) | effect of a mutation on the interaction (tthl_arath TTL, Q9LVM5 [2])
G1048D | decreasing interaction | disrupting interaction
A1031T | – | disrupting interaction
E1078K | decreasing interaction | disrupting interaction
